Test system: fluorogenic peptide (MCA)Lys-Lys-Pro-Ala-Glu-Phe-Phe-Ala-Leu-Lys(DNP)

Chain of native cardosin B (chain, as listed by the source): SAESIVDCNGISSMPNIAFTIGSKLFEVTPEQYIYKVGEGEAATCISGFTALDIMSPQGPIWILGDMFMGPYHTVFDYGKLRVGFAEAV

native cardosin B was tested, and the Km was 1.4 µM, the VMax was 6.36e-06 µmol/s and the kcat was 24 s⁻¹. It also gave a kcat/Km of 1.71e+07 M⁻¹ s⁻¹.

— US20160083711
